Data taken from patent US10590475B2, “Detection of immune cells, in particular T cells through DNA-methylation analysis of the genes CCR6 and BLR1” (Epiontis GmbH, priority 2010, dated 2020).

System: CCR6^+CD4^+ memory T cells
Assay: CCR6 expression on CCR6+CD4+ memory T cells after TCR stimulation (anti-CD3/anti-CD28 beads)
Format: cell-based, human
Settings: six days, TGF-ß 10 ng/ml
Method: Buffy coats (DRK Blutspendedienst, Berlin, Germany) and peripheral blood samples were obtained from healthy donors after informed consent in accordance with local ethical committee approval. PBMCs were separated with a Ficoll-Hypaque gradient (Sigma-Aldrich). Cell surface antigens were analyzed by single-parameter or multi-parameter fluorescence-activated cell sorter (FACS®, BD Biosciences) analysis using the following monoclonal antibodies: PE-anti-CCR6 (11A9) and Alexa700-anti-CD4 (RPA-T4) (both from BD Biosciences). APC-anti-CD25 (BC96) was purchased from ebioscience. PE-Cy5-anti-CD8 (B9.11), PE-Cy5-anti-CD56 (N901) and FITC-anti-CD25 (B1.49.9) from Beckman Coulter. Antibodies generated in house (DRFZ, Berlin): FITC-anti-CD45RA (4G11), Alexa405-anti-CD4 (TT1) and Alexa405-anti-CD3 (OKT3). In some experiments, CCR6 expression was detected by indirect immunofluorescence using biotinylated CCR6 (11A9, BD Biosciences) followed by staining with APC-conjugated streptavidin (SouthernBiotech). […]
Memory CD4^+CCR6^+ and CD4^+CCR6^− cells were stained with carboxyfluorescein succinimidyl ester (CFSE) and cultured either in CM containing magnetic beads as described above or 10 ng/ml IL-7 and 10 ng/ml IL-15 (R&D Systems). […] At the end of the cultures, cells were analyzed by flow cytometry and used for methylation analyses (see below).

B1: IL-4: cytokine reported to promote TCR-induced CCR6 down-regulation (protein, UniProt P05112 25-153, looked up)
Interleukin-4: HKCDITLQEIIKTLNSLTEQKTLCTELTVTDIFAASKNTTEKETFCRAATVLRQFYSHHEKDTRCLGATAQQFHRHKQLIRFLKRLDRNLWGLAGLNSCPVKEANQSTLENFLERLKTIMREKYSKCSS
- effect on TCR-induced down-regulation of CCR6 expression: promoted
